Biological target: hERG 1b (human, UniProt Q12809 377-1159)
Assay: cell-based or functional assay

B1: hERG 1a (other, human, UniProt Q12809 1-1159, looked up)
chain: MPVRRGHVAPQNTFLDTIIRKFEGQSRKFIIANARVENCAVIYCNDGFCELCGYSRAEVMQRPCTCDFLHGPRTQRRAAAQIAQALLGAEERKVEIAFYRKDGSCFLCLVDVVPVKNEDGAVIMFILNFEVVMEKDMVGSPAHDTNHRGPPTSWLAPGRAKTFRLKLPALLALTARESSVRSGGAGGAGAPGAVVVDVDLTPAAPSSESLALDEVTAMDNHVAGLGPAEERRALVGPGSPPRSAPGQLPSPRAHSLNPDASGSSCSLARTRSRESCASVRRASSADDIEAMRAGVLPPPPRHASTGAMHPLRSGLLNSTSDSDLVRYRTISKIPQITLNFVDLKGDPFLASPTSDREIIAPKIKERTHNVTEKVTQVLSLGADVLPEYKLQAPRIHRWTILHYSPFKAVWDWLILLLVIYTAVFTPYSAAFLLKETEEGPPATECGYACQPLAVVDLIVDIMFIVDILINFRTTYVNANEEVVSHPGRIAVHYFKGWFLIDMVAAIPFDLLIFGSGSEELIGLLKTARLLRLVRVARKLDRYSEYGAAVLFLLMCTFALIAHWLACIWYAIGNMEQPHMDSRIGWLHNLGDQIGKPYNSSGLGGPSIKDKYVTALYFTFSSLTSVGFGNVSPNTNSEKIFSICVMLIGSLMYASIFGNVSAIIQRLYSGTARYHTQMLRVREFIRFHQIPNPLRQRLEEYFQHAWSYTNGIDMNAVLKGFPECLQADICLHLNRSLLQHCKPFRGATKGCLRALAMKFKTTHAPPGDTLVHAGDLLTALYFISRGSIEILRGDVVVAILGKNDIFGEPLNLYARPGKSNGDVRALTYCDLHKIHRDDLLEVLDMYPEFSDHFWSSLEITFNLRDTNMIPGSPGSTELEGGFSRQRKRKLSFRRRTDKDTEQPGEVSALGPGRAGAGPSSRGRPGGPWGESPSSGPSSPESSEDEGPGRSSSPLRLVPFSSPRPPGEPPGGEPLMEDCEKSSDTCNPLSGAFSGVSNIFSFWGDSRGRQYQELPRCPAPTPSLLNIPLSSPGRRPRGDVESRLDALQRQLNRLETRLSADMATVLQLLQRQMTLVPPAYSAVTTPGPGPTSTSPLLPVSPLPTLTLDSLSQVSQFMACEELPPGAPELPQEGPTRRLSLPGQLGALTSQPLHRHGSDPGS
  hERG 1b maturation by Western blot analysis: ~3 fold

From patent US20100003690A1 (published 2010)
